Experimental data from patent US20190353647A1 (UNIVERSITE DE BORDEAUX, published 2019).

Target: YFP-CaM (human, UniProt P0DP23 2-149)
Assay: BRET titration curves in live HEK293T cells

binding result: binds
B1: TRPV1-Luc (receptor)
chain: MKKWSSTDLGAAADPLQKDTCPDPLDGDPNSRPPPAKPQLSTAKSRTRLFGKGDSEEAFPVDCPHEEGELDSCPTITVSPVITIQRPGDGPTGARLLSQDSVAASTEKTLRLYDRRSIFEAVAQNNCQDLESLLLFLQKSKKHLTDNEFKDPETGKTCLLKAMLNLHDGQNTTIPLLLEIARQTDSLKELVNASYTDSYYKGQTALHIAIERRNMALVTLLVENGADVQAAAHGDFFKKTKGRPGFYFGELPLSLAACTNQLGIVKFLLQNSWQTADISARDSVGNTVLHALVEVADNTADNTKFVTSMYNEILMLGAKLHPTLKLEELTNKKGMTPLALAAGTGKIGVLAYILQREIQEPECRHLSRKFTEWAYGPVHSSLYDLSCIDTCEKNSVLEVIAYSSSETPNRHDMLLVEPLNRLLQDKWDRFVKRIFYFNFLVYCLYMIIFTMAAYYRPVDGLPPFKMEKTGDYFRVTGEILSVLGGVYFFFRGIQYFLQRRPSMKTLFVDSYSEMLFFLQSLFMLATVVLYFSHLKEYVASMVFSLALGWTNMLYYTRGFQQMGIYAVMIEKMILRDLCRFMFVYIVFLFGFSTAVVTLIEDGKNDSLPSESTSHRWRGPACRPPDSSYNSLYSTCLELFKFTIGMGDLEFTENYDFKAVFIILLLAYVILTYILLLNMLIALMGETVNKIAQESKNIWKLQRAITILDTEKSFLKCMRKAFRSGKLLQVGYTPDGKDDYRWCFRVDEVNWTTWNTNVGIINEDPGNCEGVKRTLSFSLRSSRVSGRHWKNFALVPLLREASARDRQSAQPEEVYLRQFSGSLKPEDAEVFKSPAASGEKVPVNSGGGGS
notes: whole, on cells; BRET donor fusion, Luc at the C-terminus of TRPV1; transiently expressed in live HEK293T cells; also called hTRPV1-Luc; not shown: Renilla Luciferase II (Luc, Luc2, a mutant of Renilla reniformis luciferase)
